The values that follow come from article PMC8613972.

Assay [1] concerns the target Naja mossambica venom. Briefly: biolayer interferometry (wavelength shift, AUC of association curve). To be noted: 120-s association phase; n=3; parent: est. 29; read off a plot.
In assay [2] the target is Naja siamensis venom. The assay is described as above. To be noted: 120-s association phase; n=3; parent: est. 23; read off a plot.

Turning to “Homininae α-1 nAChR orthosteric site (loop C) mimotope, native S187W”, the figures for the response in assay [1] and in assay [2] were 20 AUC and 16 AUC, respectively.

As to “Homininae α-1 nAChR orthosteric site (loop C) mimotope, native S187W; S191A”, the response in assay [1] was 38 AUC; in assay [2] it was 28 AUC.

In the case of “Homininae α-1 nAChR orthosteric site (loop C) mimotope, native S187W; T189F”, the response in assay [1] worked out at 88 AUC; in assay [2] it was 50 AUC.

In the case of “Homininae α-1 nAChR orthosteric site (loop C) mimotope, native S187W; T189F; S191A”, the response stood at 76 AUC in assay [1] and 53 AUC in assay [2].

Turning to “Homininae α-1 nAChR orthosteric site (loop C) mimotope, native S191A”, the values for the response in assay [1] and in assay [2] were 35 AUC and 28 AUC, respectively.

With “Homininae α-1 nAChR orthosteric site (loop C) mimotope, native T189F”, the response in assay [1] is 46 AUC; in assay [2], 32 AUC.

For “Homininae α-1 nAChR orthosteric site (loop C) mimotope, native T189F; S191A”, the response in assay [1] was 47 AUC; in assay [2] it was 31 AUC.
